In patent US20030096379A1, “Method for producing tryptamine derivatives” (priority 2001, published 2003):
Marks after values point to notes of the source that are not given here.

Experiments:
[1] = target: T1, E. coli DH5α tryptophan synthase (TrpBA) (Escherichia coli, UniProt P0A879); format: biochemical; set-up: key: +: a clear ninhydrin-positive spot at the Rf of standard tryptophan derivatives after 16-65 h; (+): a weak spot in the product region; −: no product observed; NR: experiment not run; details: indole derivative + L-serine + PLP, 37° C., 16-65 h, ninhydrin
T1 construct: made in house; host or cells: E. coli LMG194 (pBAD) or BL-21 (pET)
Experimental: (§1) A mixture containing 2 μmole of the indole derivative, 0.05 μmole of PLP and 50 μmol of L-serine in 40 mM KPi buffer in 8% v/v ethanol water, pH 7.5, was warmed to 37° C., then enzyme solution was added to give a final volume of 1 mL. Aliquots (100 μL) were quenched at intervals of 2, 6, and 24 hours or more in microcentrifuge capsules containing 25 μL of 6 M HCl. The quenched samples were evaporated in a Savant Speed-vac. The residues were resuspended in methanol/water (1:1, 50 μL) and analyzed by TLC on Silica gel GF254 plates alongside tryptophan and tryptamine standards, eluting with CH2Cl2/EtOH/H2O/HOAc 77:20:2:1. Products were visualized first by using short-wave UV light, then with ninhydrin spray reagent (1/1/98 w/v/v ninhydrin/HOAc/EtOH) followed by heating.
(§2) Substituted indoles were incubated with L-serine, PLP and enzyme (TrpBA or TnA) prior to TLC analysis as generally described in Example 6. Serine, which can be used instead of pyruvate and ammonia for tryptophan synthesis with TnA, was employed as the 3-carbon acid because pyruvate tended to obscure the tryptophan product spots when plates were visualized with ninhydrin. TnA-catalyzed formation of tryptophan was also faster when serine was the 3-carbon donor. Reaction rates for several substrates were also estimated by HPLC.
(§3) In Table 4, “+” indicates a clear ninhydrin-positive spot at the Rf of standard tryptophan derivatives after 16-65 h; “(+)” indicates a weak spot in the product region; “−” means no product observed, “NR” means experiment not run. ESMS=electrospray mass spectrometry. Unless otherwise indicated, the mass value given represents the singly-protonated molecular ion (M+1).

tryptophanase (TnA) = target: T2, tryptophanase (TnA) (Escherichia coli, UniProt P0A853); format: biochemical, E. coli; set-up: key: +: a clear ninhydrin-positive spot at the Rf of standard tryptophan derivatives after 16-65 h; (+): a weak spot in the product region; −: no product observed; NR: experiment not run; details: indole derivative + L-serine + PLP, 37° C., 16-65 h, ninhydrin
T2 construct: made in house; host or cells: E. coli LMG194 (pBAD) or BL-21 (pET)
Experimental: as §1, §2, §3

TrpBA = target: T3, TrpBA (Escherichia coli, UniProt P0A879); assay: Relative rates of tryptophan derivative synthesis by HPLC, TrpBA; format: biochemical, E. coli; details: initial rate estimated by HPLC, indole = 100%, L-serine
T3 construct: made in house; host or cells: E. coli LMG194 (pBAD) or BL-21 (pET)
Experimental: Reaction mixtures were prepared as in Example 6 and were incubated at 37° C. Aliquots (100 μL) were removed and quenched by addition of to 300 μL of 0.5 M sodium citrate, pH 3.0 in 10% v/v acetonitrile/water in 2 ml microcentrifuge tubes. Following centrifugation for 10 min at 13,000×g, the supernatants were passed through 0.45μ membrane filters prior to HPLC analysis of 20 μL of filtrate.
TnA reactions were run with L-serine as the 3-carbon substrate.

TrpBA and TDC1 = assay: Coupled enzyme synthesis monitored by HPLC; format: biochemical; details: L-serine, PLP, pH 8.5 phosphate buffer, 37° C.
Experimental: To a solution containing L-serine (25 μmol), pyridoxal phosphate (0.05 μmol) and TrpBA (0.02 to 1.5 units, depending on the substrate), TDC1 (0.2 mL 0.6 units) and KPi buffer (0.05 mmol, pH 7.5) in a volume of 0.8 mL were added […] of 5 mM indole derivative in 20% v/v ethanol/water. The mixture was incubated at 37° C. and aliquots were quenched and analyzed as described for Example 8. In cases where tryptamine and/or tryptophan standards were not available, peaks were collected for mass spectral analysis. Electrospray mass spectral analyses were performed.
Mixtures containing indole, L-serine, PLP and TDC1 were incubated in pH 8.5 phosphate buffer, analyzing aliquots by HPLC, as described in Example 12.
The procedure used in Example 24 was carried out by substituting indole with 2-methylindole, 4-hydroxymethylindole, 5-methoxy-, 5-hydroxymethyl-, 5-methoxycarbonyl, and 5,6-dimethoxyindole.

[2] = Tryptophan synthase activity of the enzyme preparation (290 nm assay); format: biochemical, E. coli
Experimental: (§4) Tryptophan synthase activity was assayed by monitoring the increase in absorbance at 290 nm of a mixture containing serine, indole and PLP (Higgins, W., et al., Biochemistry, 1979, 18, 4827). TnA-catalyzed tryptophan synthesis was also measured by the 290 nm assay, while the tryptophan lyase reaction rate was measured by monitoring the reduction in NADH in reaction mixtures containing L-tryptophan and lactate dehydrogenase, indicating the amount of pyruvate released. Tryptophan decarboxylase was assayed colorimetrically by monitoring the sabsorbance at 580 nm produced by serotonin (AAADs) or tryptamine (TDCs) following treatment of reaction aliquots with Ehrlich's reagent (4-N,N-(dimethyl)aminobenzaldehyde in ethanolic HCl; Nakazawa, H.; Kumagi, H.; Yamada, H. Biochem Biophys. Res. Commun., 1974, 61, 75-82). Serotonin could be detected with approximately 5-fold higher sensitivity by this method as compared with tryptamine. The Ehrlich reagent assay using a microtiter plate format for simultaneous analysis of multiple enzyme samples may also be used. HPLC analysis was performed on acid-quenched reaction aliquots by using a base-deactivated C8 reversed-phase support (Shandon Hypersil BD8). HPLC analysis of acid-quenched aliquots permitted calculation of a rate ratio of 4.5 to 1 for pkAAAD-catalyzed DOPA decarboxylation relative to that of L-5-hydroxytryptophan, in good agreement with the accepted ratio of approximately 5:1. (See Sourkes, T. L. Methods Enzymol., 1987, 142, 170-178, which is incorporated herein by reference.)
Reaction mixtures were prepared as in Example 6 in polymethacrylate or quartz spectrophotometer cuvettes, and the increase absorbance were measured immediately at 290 nm, assuming a change in extinction coefficient for the indole-tryptophan conversion is δ290=1.85 MM−1 cm^−1. For TrpBA, the rate at 37° C. is approximately 2.8 fold higher than at 23° C.
Activity is expressed as μmol product formed per minute, TrpBA activity is reported for the reaction: indole+serine−>tryptophan at room temperature as described in the next section. Tryptophanase is reported for the reaction: tryptophan−>indole+pyruvate+NH4^+ at room temperature. The rate of tryptophan synthesis for TrpBA under our assay conditions is approximately 3-fold higher at 37° C.

[3] = pH-rate profiles for tryptophan-metabolizing enzymes; format: biochemical; details: for activity over the entire optimum pH range shown by TrpBA: pH 7.5 to 9.5
Excerpt: Both AAADs TDC1 and TDC2 were active over the entire optimum range shown by TrpBA. These broad activity ranges make it clear that the coupled enzyme process is not limited by pH.

[4] = Decarboxylase activity of the enzyme preparations (Ehrlich's reagent); format: biochemical
Experimental: as §4
A mixture (0.95 mL) containing L-5-hydroxytryptophan (2 mM), PLP (0.25 mM) and pH 7.5 KPi buffer (44 mM) was warmed to 37° C., then 50 μL of enzyme was added. Reaction aliquots were quenched in microcentrifuge capsules containing 50 μL each of 6M HCl to quench the enzyme reaction at 2, 5, and 20 min. Quenched aliquots were heated at 50° C. for 40 min with 750 μL each of Ehrlich's reagent (2:24:74 w/v/v […]: conc HCl: ethanol). Absorbance was read at 580-nm and compared with standards of serotonin (10-250 μM) or tryptamine (50 to 2000 μM).
Decarboxylase enzyme activity was determined using L-5-hydroxytryptophan as the substrate unless otherwise stated.

[5] = Table 2, L-5-hydroxytryptophan as substrate

Molecule	TrpBA (tryptophan product spot, TLC analysis) [1]	TnA (tryptophan product spot, TLC analysis) (tryptophanase (TnA))	Relative rate (TrpBA) (TrpBA)	formation of tryptophan derivative and tryptamine (HPLC peaks) (TrpBA and TDC1)	Crude specific activity [4, 5] [units/mg]	Purified specific activity [4, 5] [Units/mg]	Crude specific activity ([4]; Table 3, decarboxylases) [units/mg]	activity over the entire optimum pH range shown by TrpBA [3]	other results
Cc1cc2ccccc2[nH]1 [2-methyl-, 2-methylindole]	−	+	20.6* %	a second peak representing formation of tryptamine					
COc1ccc2[nH]ccc2c1 [5-methoxy-]	+	+	19.0%	a second peak representing formation of tryptamine					
TrpBA: wild-type E. coli DH5α tryptophan synthase, E.C.4.2.1.20, α- and β-subunits coexpressed (protein, UniProt P0A877 1-268; P0A879 2-397, looked up) Tryptophan synthase alpha …: MERYESLFAQLKERKEGAFVPFVTLGDPGIEQSLKIIDTLIEAGADALELGIPFSDPLADGPTIQNATLRAFAAGVTPAQCFEMLALIRQKHPTIPIGLLMYANLVFNKGIDEFYAQCEKVGVDSVLVADVPVEESAPFRQAALRHNVAPIFICPPNADDDLLRQIASYGRGYTYLLSRAGVTGAENRAALPLNHLVAKLKEYNAAPPLQGFGISAPDQVKAAIDAGAAGAISGSAIVKIIEQHINEPEKMLAALKVFVQPMKAATRS Tryptophan synthase beta chain: TTLLNPYFGEFGGMYVPQILMPALRQLEEAFVSAQKDPEFQAQFNDLLKNYAGRPTALTKCQNITAGTNTTLYLKREDLLHGGAHKTNQVLGQALLAKRMGKTEIIAETGAGQHGVASALASALLGLKCRIYMGAKDVERQSPNVFRMRLMGAEVIPVHSGSATLKDACNEALRDWSGSYETAHYMLGTAAGPHPYPTIVREFQRMIGEETKAQILEREGRLPDAVIACVGGGSNAIGMFADFINETNVGLIGVEPGGHGIETGEHGAPLKHGRVGIYFGMKAPMMQTEDGQIEESYSISAGLDFPSVGPQHAYLNSTGRADYVSITDDEALEAFKTLCLHEGIIPALESSHALAHALKMMRENPDKEQLLVVNLSGRGDKDIFTVHDILKARGEI									rate at 37° C. relative to 23° C. ([2]; 290 nm assay): approximately 2.8 fold; Crude specific activity ([2]; Table 3, TrpBA): 1.2 units/mg; Crude spec activity ([2]; TrpBA, indole+serine->tryptophan, room temperature): 1.2; Purified specific activity ([2]; TrpBA, indole+serine->tryptophan, room temperature, after DEAE cellulose): 2.2 Units/mg; rate of tryptophan synthesis at 37° C. relative to room temperature ([2]; assay conditions of Table 1): approximately 3 fold; percent of the maximum rate ([3]; between pH 7.5 and 9.5, L-serine and indole): at least 90%
TDC2: C. accuminata tryptophan decarboxylase expressed in E. coli DH5α (protein, UniProt P93083 1-498, looked up) Tryptophan decarboxylase TDC2: MGSIDSNYDTESAGQCRPLEPEEFRKQAHQMVDFIADYYKNIESYPVLSQVEPGYLQSRLPETAPYRPEPFESILKDVHKDIIPGVTHWLSPNFFAYFPATVSSAAFVGEMLCTCFNAVGFNWLASPAELELEMVVMDWLASMLKLPNSFTFLGTGGGVIQGTTSEAILCTLIAARDRALESIGVDSIHKLVVYGSDQTHSTYAKACNLAGILPCNIRSIRTEAVANFSLSPDSLHREIEADVAAGMVPLYLCATVGTTSTTAIDSLSPLADVANDYGLWFHVDAAYAGSACICPEFRHYLDGIERADSLSLSPHKWLLSYLDCCCLWVKRPSVLVKALSTDPEYLKNKPSESNSVVDFKDWQVGTGRRFKALRLWFVMRSYGVANLQSHIRSDIQMAKMFEEFVNSDPRFEIVVPRVFSLVCFRLNPFSKSDPCNTELLNRKLLEWVNSTGQVYITHTKVGGVYMLRFAVGATLTEEHHVSAAWKLIREGADALLCS					0.12	0.2	0.12	active	
TDC1: C. accuminata tryptophan decarboxylase expressed in E. coli DH5α (protein, UniProt P93082 1-502, looked up) Tryptophan decarboxylase TDC1: MGSLDSNYDTESPASVGQFNPLDPEEFRKQAHCIVDFIADYYKNIESYPVLSQVDPGYRHSRLGKNAPYRSEPFESILKDVQKDIIPGMTHWMSPNFFAHFPATVSSAAFVGEMLCTCFNSVGFNWLASPAATELEMVVIDWLANMLKLPKSFMFSGTGGGVLQGTTSEAILCTLIAASPMHFEIVGVKTSTSFVVYGSDQTHSTYAKACKLAGILPCNIRSIPTTADSNFSVSPLLLRRAIEADKAAGMVPLYICATVGTTSTTAIDPLSSLADVANDYGVWFHVDAAYAGSACICPEFRHYLDGIERADSLSLSPHKWLLSYLDCCCLWVKSPSLLVKALSTDPEYLKNQPSESKSVVDYKDWQVGTGRRFKALRLWFVMRSYGVANLQSHIRTDVQMAKMFEGFVKSDPRFEILVPRVFSLVCFRLNPISGSDPTGTEALNRKLLDWVNSTGRVYMTHTKVGGIYMLRFAVGATLTEKRHVSSAWKLIKEGADVLLKED					0.11	0.3	0.11	active	
